Earlier results in article PMC8969216.

Molecular target: SLAMF1 (Homo sapiens) (UniProt Q13291)

Kd: 200 µM
Substance: SLAMF1 (from UniProt Q13291)
